Measurements as given in patent US20190038774A1.

Target: MHCI antigen presented on MNs
Test: cell-based or functional assay

Substance: killer cell immunoglobulin-like receptor 3DL2 (KIR3DL2) (from UniProt P43630 22-455)
- MN death on co-culture with kir3dl2 shRNA treated ALS astrocytes, day 7: 50%
